In US20140045756A1 (NEW YORK UNIVERSITY, published 2014):

T1: TNFR2 (TNFRSF1B/CD120b), yeast two-hybrid construct (mouse (clone from a murine embryonic …, UniProt P25119 23-258))
T1 construct: one molecule is used for all Y2H assays; also called cell surface TNFR2
T1 sequence (looked up): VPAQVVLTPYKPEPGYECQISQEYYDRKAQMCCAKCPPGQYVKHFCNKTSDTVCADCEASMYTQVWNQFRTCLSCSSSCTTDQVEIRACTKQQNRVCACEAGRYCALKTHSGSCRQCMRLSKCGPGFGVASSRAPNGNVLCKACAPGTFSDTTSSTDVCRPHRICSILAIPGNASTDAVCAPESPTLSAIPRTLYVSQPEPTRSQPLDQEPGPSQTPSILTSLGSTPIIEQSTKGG

B1: PGRN granulin unit A (yeast two-hybrid construct) (peptide)
chain: DVKCDMEVSCPDGYTCCRLQSGAWGCCPFTQAVCCEDHIHCCPAGFTCDTQKGTCE
notes: also called granulin A
B2: PGRN linker region P3 (yeast two-hybrid construct) (peptide)
chain: ITPTGTHPLAKKLPAQRTNRAVALSSS
B3: PGRN linker region P4 (yeast two-hybrid construct) (peptide)
chain: LSKENATTDLLTKLPAHTVGD
B4: PGRN linker region P5 (yeast two-hybrid construct) (peptide)
chain: EQGPHQVPWMEKAPAHLSLPDPQALKRDV
B5: PGRN granulin unit C (yeast two-hybrid construct) (peptide)
chain: VPCDNVSSCPSSDTCCQLTSGEWGCCPIPEAVCCSDHQHCCPQGYTCVAEGQCQ
notes: also called granulin C
B6: PGRN granulin unit F (yeast two-hybrid construct) (peptide)
chain: AIQCPDSQFECPDFSTCCVMVDGSWGCCPMPQASCCEDRVHCCPHGAFCDLVHTRCI
notes: also called granulin F

Target: T1, TNFR2 (TNFRSF1B/CD120b), yeast …
Assay: yeast two-hybrid, β-galactosidase assay
Description: Assay of protein-protein interactions using the Y2H system. Independent yeast colonies were analyzed for the interaction of two proteins, one of which was fused to the Ga14 DNA binding domain and the other, to the VP16 transactivation domain. Previously published procedures were followed for 1) growing and transforming the yeast strain MAV203 with the selected plasmids; and 2) determining β-galactosidase activity and growth phenotypes on selective media lacking tryptophan, leucine, histidine, and uracil.

| Binder | binding result |
| --- | --- |
| B1 | no binding |
| B2 | no binding |
| B3 | no binding |
| B4 | no binding |
| B5 | no binding |
| B6 | no binding |
